Test results from US20150258192A1, “COMPOSITIONS AND METHODS FOR PREVENTING OR TREATING CHRONIC LUNG ALLOGRAFT DYSFUNCTION (CLAD) AND IDIOPATHIC PULMONARY FIBROSIS (IPF)” (priority 2014, published 2015).
No end group written: not given here.

How the values were obtained:
Abl(H396P)(h) = Abl(H396P)(h) (Homo sapiens, UniProt P00519, H396P); test: Kinase Profiling Assay; assay type: biochemical; details: peptide 100 μM
Outline: (§1)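 Kinase inhibition by MK2 inhibitory peptides was profiled radiometrically, with substrate phosphorylation from labeled ATP read by scintillation after capture on a charged filter. Values are relative to 100% activity and measured in duplicate.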

Abl(M351T)(h) = Abl(M351T)(h) (Homo sapiens, UniProt P00519, M351T); test: Kinase Profiling Assay; assay type: biochemical; details: peptide 100 μM
Outline: as §1

Aurora-A(h) = molecular target: T1, Aurora-A(h) (Homo sapiens, UniProt O14965); test: Kinase Profiling Assay; assay type: biochemical; details: peptide 100 μM
T1 sequence (O14965 1-403): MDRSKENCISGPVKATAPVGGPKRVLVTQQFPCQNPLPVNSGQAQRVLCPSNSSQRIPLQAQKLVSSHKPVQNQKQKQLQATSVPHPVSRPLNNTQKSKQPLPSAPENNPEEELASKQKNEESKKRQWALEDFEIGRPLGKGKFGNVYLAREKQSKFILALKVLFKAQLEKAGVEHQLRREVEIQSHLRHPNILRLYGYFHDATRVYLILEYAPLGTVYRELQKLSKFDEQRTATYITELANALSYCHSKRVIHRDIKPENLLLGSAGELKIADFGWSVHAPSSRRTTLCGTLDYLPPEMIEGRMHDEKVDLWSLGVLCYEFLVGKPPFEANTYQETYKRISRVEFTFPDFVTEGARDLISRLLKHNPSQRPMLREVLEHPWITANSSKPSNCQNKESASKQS
Outline: as §1

CK1γ3(h) = CK1γ3(h) (Homo sapiens, UniProt Q9Y6M4); test: Kinase Profiling Assay; assay type: biochemical; details: peptide 100 μM
Outline: as §1

DDR2(h) = molecular target: T2, DDR2(h) (Homo sapiens, UniProt Q16832); test: Kinase Profiling Assay; assay type: biochemical; details: peptide 100 μM
T2 sequence (Q16832 22-855): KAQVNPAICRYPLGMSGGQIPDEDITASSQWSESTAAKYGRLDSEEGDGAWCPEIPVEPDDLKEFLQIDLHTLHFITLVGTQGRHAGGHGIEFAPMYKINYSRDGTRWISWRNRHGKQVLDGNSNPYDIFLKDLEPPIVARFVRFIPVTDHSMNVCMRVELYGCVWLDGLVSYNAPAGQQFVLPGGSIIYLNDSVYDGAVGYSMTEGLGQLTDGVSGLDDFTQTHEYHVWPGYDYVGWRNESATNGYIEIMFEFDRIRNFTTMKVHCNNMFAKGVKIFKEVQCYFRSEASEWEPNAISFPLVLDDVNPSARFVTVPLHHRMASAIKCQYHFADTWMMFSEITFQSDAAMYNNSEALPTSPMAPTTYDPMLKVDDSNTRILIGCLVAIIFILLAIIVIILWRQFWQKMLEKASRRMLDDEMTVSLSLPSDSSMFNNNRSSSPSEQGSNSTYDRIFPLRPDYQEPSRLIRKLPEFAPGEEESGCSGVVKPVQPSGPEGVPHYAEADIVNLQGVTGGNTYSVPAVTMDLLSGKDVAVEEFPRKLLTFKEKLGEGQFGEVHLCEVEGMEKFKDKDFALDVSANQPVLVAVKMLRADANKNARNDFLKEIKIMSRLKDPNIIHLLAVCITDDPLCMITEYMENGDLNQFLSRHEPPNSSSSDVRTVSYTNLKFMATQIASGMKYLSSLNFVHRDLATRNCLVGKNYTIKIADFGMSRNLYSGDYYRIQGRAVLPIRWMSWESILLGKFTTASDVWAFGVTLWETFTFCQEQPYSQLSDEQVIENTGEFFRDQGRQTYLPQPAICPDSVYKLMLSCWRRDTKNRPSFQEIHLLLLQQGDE
Outline: as §1

EGFR(T790M)(h) = EGFR(T790M)(h) (Homo sapiens, UniProt P00533, T790M); test: Kinase Profiling Assay; assay type: biochemical; details: peptide 100 μM
Outline: as §1

HIPK3(h) = molecular target: T3, HIPK3(h) (Homo sapiens, UniProt Q9H422); test: Kinase Profiling Assay; assay type: biochemical; details: peptide 100 μM
T3 construct: purchased Millipore
Outline: as §1

Lck(h) = molecular target: T4, Lck(h) (Homo sapiens, UniProt P06239); test: Kinase Profiling Assay; assay type: biochemical; details: peptide 100 μM
T4 construct: purchased Millipore
Outline: as §1

PAK3(h) = PAK3(h) (Homo sapiens, UniProt O75914); test: Kinase Profiling Assay; assay type: biochemical; details: peptide 100 μM
Outline: as §1

PAR-1Bα(h) = PAR-1Bα(h) (Homo sapiens, UniProt Q7KZI7); test: Kinase Profiling Assay; assay type: biochemical; details: peptide 100 μM
Outline: as §1

PDGFRα(D842V)(h) = PDGFRα(D842V)(h) (Homo sapiens, UniProt P16234, D842V); test: Kinase Profiling Assay; assay type: biochemical; details: peptide 100 μM
Outline: as §1

PKA(h) = PKA(h) (Homo sapiens, UniProt P17612); test: Kinase Profiling Assay; assay type: biochemical; details: peptide 100 μM
Outline: as §1

SRPK2(h) = molecular target: T5, SRPK2(h) (Homo sapiens, UniProt P78362); test: Kinase Profiling Assay; assay type: biochemical; details: peptide 100 μM
T5 construct: purchased Millipore
Outline: as §1

CK2α2(h) = CK2α2(h) (Homo sapiens, UniProt P19784); test: Kinase Profiling Assay; assay type: biochemical; details: peptide 100 μM
Outline: as §1

GRK5(h) = molecular target: T6, GRK5(h) (Homo sapiens, UniProt P34947); test: Kinase Profiling Assay; assay type: biochemical; details: peptide 100 μM
T6 construct: purchased Millipore
Outline: as §1

IGF-1R(h) = molecular target: T7, IGF-1R(h) (Homo sapiens, UniProt P08069); test: Kinase Profiling Assay; assay type: biochemical; details: peptide 100 μM
T7 construct: purchased Millipore
Outline: as §1

Tie2(R849W)(h) = Tie2(R849W)(h) (Homo sapiens, UniProt Q02763, R849W); test: Kinase Profiling Assay; assay type: biochemical; details: peptide 100 μM
Outline: as §1

[1] = test system: human fetal lung fibroblasts (IMR-90); test: TGF-β-mediated fibronectin expression; assay type: cell-based; details: pre-treated 1 h, TGF-β1 (2 ng/ml) 72 h, conditioned media
Experimental: Fibronection was measured as secreted fragments in the conditioned media. Equal amounts (14 μg) of total proteins from the conditioned media were loaded in each lane.

T5 sequence (P78362 whole entry): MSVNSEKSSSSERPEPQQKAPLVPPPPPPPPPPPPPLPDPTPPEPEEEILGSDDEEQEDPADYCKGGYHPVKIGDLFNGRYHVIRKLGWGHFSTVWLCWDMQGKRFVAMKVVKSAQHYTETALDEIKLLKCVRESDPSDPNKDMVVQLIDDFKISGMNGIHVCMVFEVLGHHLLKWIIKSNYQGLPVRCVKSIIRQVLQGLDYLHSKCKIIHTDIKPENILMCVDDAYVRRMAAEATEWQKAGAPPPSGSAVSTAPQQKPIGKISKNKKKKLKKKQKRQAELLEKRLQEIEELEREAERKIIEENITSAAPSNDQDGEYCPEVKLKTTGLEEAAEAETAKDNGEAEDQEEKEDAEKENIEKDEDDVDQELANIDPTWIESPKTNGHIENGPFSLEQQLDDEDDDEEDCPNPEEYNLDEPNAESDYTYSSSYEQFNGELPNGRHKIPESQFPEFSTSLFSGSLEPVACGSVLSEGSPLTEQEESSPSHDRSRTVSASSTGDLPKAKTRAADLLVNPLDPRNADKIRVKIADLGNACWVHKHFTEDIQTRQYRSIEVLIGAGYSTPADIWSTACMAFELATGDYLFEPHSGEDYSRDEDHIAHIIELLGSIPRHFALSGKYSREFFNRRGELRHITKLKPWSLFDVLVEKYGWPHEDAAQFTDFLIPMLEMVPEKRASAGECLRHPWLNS
Tie2(R849W)(h), sequence (Q02763 23-1124 R849W): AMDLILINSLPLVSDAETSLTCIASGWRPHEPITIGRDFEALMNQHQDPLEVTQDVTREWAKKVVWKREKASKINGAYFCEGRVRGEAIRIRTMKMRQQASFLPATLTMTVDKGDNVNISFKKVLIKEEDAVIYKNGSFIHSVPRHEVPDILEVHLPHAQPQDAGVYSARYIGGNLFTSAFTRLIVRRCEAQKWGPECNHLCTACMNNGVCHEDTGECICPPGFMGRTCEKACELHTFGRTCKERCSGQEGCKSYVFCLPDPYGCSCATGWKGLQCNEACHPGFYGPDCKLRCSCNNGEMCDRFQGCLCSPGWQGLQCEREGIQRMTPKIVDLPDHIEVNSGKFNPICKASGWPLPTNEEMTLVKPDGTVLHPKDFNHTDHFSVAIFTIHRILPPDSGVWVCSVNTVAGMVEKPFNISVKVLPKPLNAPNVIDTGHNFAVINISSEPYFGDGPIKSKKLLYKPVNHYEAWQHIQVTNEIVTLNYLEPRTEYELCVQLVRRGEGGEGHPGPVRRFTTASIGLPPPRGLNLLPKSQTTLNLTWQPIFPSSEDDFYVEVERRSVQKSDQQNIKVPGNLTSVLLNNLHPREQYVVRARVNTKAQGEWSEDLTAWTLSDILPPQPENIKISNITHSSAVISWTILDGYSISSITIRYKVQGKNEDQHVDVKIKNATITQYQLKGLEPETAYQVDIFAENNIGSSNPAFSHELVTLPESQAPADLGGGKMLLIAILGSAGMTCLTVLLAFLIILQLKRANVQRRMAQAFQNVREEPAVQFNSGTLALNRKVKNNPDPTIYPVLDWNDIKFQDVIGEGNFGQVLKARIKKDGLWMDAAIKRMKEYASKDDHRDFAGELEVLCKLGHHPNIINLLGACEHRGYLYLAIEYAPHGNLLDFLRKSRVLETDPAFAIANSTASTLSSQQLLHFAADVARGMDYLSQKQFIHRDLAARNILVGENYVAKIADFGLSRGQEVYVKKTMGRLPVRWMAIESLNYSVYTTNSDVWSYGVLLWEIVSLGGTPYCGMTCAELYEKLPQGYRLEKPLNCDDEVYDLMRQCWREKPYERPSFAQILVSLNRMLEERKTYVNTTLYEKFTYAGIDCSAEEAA
CK1γ3(h), sequence (Q9Y6M4 whole entry): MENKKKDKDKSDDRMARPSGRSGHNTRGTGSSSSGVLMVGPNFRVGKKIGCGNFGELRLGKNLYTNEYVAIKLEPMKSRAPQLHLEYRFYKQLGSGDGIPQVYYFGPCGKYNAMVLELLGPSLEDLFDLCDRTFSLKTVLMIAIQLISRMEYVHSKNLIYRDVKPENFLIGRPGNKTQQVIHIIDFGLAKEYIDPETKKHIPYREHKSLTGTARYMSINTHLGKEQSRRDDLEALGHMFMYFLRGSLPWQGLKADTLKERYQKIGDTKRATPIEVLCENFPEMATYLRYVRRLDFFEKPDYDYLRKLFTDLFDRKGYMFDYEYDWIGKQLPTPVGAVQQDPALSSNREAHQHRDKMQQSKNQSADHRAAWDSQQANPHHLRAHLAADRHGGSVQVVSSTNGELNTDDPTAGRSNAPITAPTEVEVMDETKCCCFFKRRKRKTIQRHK
T4 sequence (P06239 whole entry): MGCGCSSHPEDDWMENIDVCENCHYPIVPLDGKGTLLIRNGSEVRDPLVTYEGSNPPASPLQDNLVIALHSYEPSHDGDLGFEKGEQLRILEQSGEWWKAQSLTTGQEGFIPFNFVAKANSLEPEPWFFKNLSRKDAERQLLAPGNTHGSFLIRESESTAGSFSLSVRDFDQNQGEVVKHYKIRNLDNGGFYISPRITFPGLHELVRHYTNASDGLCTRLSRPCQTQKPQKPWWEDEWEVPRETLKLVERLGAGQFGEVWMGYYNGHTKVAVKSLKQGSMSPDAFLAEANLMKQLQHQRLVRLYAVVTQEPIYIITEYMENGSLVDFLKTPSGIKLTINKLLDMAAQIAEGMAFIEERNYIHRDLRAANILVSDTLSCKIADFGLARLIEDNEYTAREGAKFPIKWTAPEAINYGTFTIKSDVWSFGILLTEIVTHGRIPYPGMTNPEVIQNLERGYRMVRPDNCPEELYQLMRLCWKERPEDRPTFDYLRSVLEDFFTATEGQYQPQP
T3 sequence (Q9H422 whole entry): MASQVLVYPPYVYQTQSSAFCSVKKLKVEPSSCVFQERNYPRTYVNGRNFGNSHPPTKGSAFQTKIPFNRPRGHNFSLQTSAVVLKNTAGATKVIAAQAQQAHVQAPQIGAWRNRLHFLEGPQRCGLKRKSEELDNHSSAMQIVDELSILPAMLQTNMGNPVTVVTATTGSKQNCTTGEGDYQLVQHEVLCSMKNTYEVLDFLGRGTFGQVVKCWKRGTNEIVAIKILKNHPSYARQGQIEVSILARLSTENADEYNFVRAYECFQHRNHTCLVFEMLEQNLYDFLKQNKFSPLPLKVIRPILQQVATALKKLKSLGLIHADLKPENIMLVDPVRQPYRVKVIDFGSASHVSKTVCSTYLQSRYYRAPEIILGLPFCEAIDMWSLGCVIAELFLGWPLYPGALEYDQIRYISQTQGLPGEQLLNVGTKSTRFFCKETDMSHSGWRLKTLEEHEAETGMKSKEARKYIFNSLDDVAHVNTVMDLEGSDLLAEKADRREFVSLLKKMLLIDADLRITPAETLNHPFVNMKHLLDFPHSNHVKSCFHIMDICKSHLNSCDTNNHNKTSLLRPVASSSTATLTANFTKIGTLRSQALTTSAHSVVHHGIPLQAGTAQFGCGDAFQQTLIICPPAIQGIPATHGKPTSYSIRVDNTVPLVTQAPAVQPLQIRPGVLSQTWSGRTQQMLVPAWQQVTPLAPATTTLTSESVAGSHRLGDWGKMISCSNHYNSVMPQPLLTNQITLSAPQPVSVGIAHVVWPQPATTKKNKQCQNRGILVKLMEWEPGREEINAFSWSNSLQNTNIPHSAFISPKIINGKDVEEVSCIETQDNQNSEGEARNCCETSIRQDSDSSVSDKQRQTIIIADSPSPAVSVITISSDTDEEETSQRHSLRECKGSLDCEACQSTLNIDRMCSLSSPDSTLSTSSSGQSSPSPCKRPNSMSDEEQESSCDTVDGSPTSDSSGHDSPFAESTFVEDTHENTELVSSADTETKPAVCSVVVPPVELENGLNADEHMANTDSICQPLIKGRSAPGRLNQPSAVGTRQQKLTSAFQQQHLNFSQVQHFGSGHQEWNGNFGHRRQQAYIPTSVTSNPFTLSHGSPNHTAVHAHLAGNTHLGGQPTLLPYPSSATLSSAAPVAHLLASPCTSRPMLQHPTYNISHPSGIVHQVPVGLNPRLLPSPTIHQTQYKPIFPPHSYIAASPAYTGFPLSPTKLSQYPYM
T6 sequence (P34947 whole entry): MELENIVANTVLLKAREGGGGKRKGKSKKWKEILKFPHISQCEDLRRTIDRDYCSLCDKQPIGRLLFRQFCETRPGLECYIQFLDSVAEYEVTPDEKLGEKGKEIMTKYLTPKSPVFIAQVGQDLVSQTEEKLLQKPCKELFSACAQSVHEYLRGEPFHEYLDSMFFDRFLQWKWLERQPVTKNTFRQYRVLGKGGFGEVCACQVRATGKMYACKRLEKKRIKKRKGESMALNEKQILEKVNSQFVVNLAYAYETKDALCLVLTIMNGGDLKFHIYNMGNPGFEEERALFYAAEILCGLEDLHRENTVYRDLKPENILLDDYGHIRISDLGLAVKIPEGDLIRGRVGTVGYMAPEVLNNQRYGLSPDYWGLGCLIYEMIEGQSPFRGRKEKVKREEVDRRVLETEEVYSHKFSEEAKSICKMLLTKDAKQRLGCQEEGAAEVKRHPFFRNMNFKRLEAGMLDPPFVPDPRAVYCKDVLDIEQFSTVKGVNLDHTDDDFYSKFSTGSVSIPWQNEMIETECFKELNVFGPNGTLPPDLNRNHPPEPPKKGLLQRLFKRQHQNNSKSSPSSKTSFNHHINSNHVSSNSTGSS
CK2α2(h), sequence (P19784 whole entry): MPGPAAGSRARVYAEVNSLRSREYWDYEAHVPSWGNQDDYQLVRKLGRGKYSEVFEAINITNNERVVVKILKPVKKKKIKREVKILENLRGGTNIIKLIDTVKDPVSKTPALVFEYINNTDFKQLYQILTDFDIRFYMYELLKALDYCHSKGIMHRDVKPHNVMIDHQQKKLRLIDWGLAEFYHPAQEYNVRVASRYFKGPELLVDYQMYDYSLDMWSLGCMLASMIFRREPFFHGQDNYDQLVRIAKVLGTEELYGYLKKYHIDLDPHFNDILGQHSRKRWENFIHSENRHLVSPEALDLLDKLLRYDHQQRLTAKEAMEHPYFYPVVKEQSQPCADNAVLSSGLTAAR

Sequence: FAKLAARLYRKALARQLGVAA [MMI-0300]
- % activity (Abl(H396P)(h)): 101%
- % activity (Abl(M351T)(h)): 90%
- % activity (Aurora-A(h)): 92%
- % activity (CK1γ3(h)): 125%
- % activity (DDR2(h)): 94%
- % activity (EGFR(T790M)(h)): 100%
- % activity (HIPK3(h)): 93%
- % activity (Lck(h)): -2%
- % activity (PAK3(h)): 140%

Sequence: HRRIKAWLKKIKALARQLGVAA (Mammal) [MMI-0500]
- % activity (Abl(H396P)(h)): 51%
- % activity (Abl(M351T)(h)): 61%
- % activity (Aurora-A(h)): 110%
- % activity (DDR2(h)): 79%
- % activity (EGFR(T790M)(h)): 70%
- % activity (HIPK3(h)): 85%
- % activity (Lck(h)): 359%
- % activity (PAR-1Bα(h)): 97%
- % activity (PDGFRα(D842V)(h)): 170%
- % activity (PKA(h)): 118%
- % activity (SRPK2(h)): 80%

Sequence: KAFAKLAARLYRKALARQLGVAA [MMI-0400]
- % activity (CK2α2(h)): 96%
- % activity (DDR2(h)): 95%
- % activity (GRK5(h)): 131%
- % activity (IGF-1R(h)): 90%
- % activity (PDGFRα(D842V)(h)): 118%
- % activity (SRPK2(h)): 97%
- % activity (Tie2(R849W)(h)): 108%

Sequence: YARAAARQARAKALARQLGVAA [MMI-0100]
- % activity (SRPK2(h)): 92%
- protein level of fibronectin [1]: decreases

Sequence: YARAAARQARAKALNRQLGVA (Mammal) [MMI-0200]
- % activity (CK1γ3(h)): 96%
- % activity (CK2α2(h)): 88%
- % activity (GRK5(h)): 135%
- % activity (IGF-1R(h)): 49%
- % activity (PAK3(h)): 50%
- % activity (PAR-1Bα(h)): 110%
- % activity (PKA(h)): 110%
- % activity (SRPK2(h)): 100%
- % activity (Tie2(R849W)(h)): 89%
- protein level of fibronectin [1]: no changes
